From article PMC2761005, “Three-Dimensional Structure of N-Terminal Domain of DnaB Helicase and Helicase-Primase Interactions in Helicobacter pylori” (PLoS ONE, 2009) come the findings set out here.

Data set [1] concerns the molecule itself. As to the kind of experiment: SEC; Hi Load superdex-75 16/60 column, 20 mM Tris.Cl pH 7.5, 100 mM NaCl, 1 mM EDTA, 5 mM βME; mass deduced from a plot of gel filtration standards.
Data set [2] deals with C-terminal domain (CTD) of H. pylori DnaG primase (H. pylori) (UniProt P56064). As to the kind of experiment: SPR; Biacore 2000, 25°C; 750 RU of CTD of HpDnaG amine-coupled on a CM4 chip; helicase samples (10 µM) injected at 20 µl/min in 10 mM Hepes pH 7.4, 150 mM NaCl, 3 mM EDTA, 0.005% P20.
C-terminal domain (CTD) of H. pylori DnaG primase (H. pylori), sequence (P56064 whole entry, the tested form may be a part): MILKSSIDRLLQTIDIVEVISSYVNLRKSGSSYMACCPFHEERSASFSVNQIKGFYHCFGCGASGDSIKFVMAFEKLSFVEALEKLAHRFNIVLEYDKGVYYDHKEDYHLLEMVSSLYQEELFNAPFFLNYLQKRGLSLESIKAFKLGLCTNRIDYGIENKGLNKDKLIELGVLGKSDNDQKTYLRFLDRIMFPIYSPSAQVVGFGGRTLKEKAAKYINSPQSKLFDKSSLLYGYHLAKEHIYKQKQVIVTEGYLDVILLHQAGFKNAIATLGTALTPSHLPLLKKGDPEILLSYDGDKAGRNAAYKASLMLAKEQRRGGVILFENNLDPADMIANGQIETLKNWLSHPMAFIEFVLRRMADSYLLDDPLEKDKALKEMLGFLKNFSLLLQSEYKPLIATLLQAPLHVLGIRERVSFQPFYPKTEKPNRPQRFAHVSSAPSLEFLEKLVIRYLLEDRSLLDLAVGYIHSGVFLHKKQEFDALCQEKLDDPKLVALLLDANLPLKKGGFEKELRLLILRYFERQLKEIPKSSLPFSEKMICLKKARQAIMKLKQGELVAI

B1: N-terminal domain (NTD) of H. pylori DnaB helicase (residues 1-121) (domain or fragment, UniProt O25916 1-121, looked up)
chain: MDHLKHLQQLQNIERIVLSGIVLANHKIEEVHSVLEPSDFYYPPNGLFFEIALKLHEEDCPIDENFIRQKMPKDKQIKEEDLVAIFAASPIDNIEAYVEEIKNASIKRKLFGLANTIREQA
notes: Cloned NcoI/XhoI into pET 28a; also called NTD of HpDnaB; source: E. coli BL21 (DE3), purified (Ni-NTA, Superdex-75 gel filtration); not shown: His6, C-terminal, kept
In general, stoichiometry N refers to a count of units in the complex or per binding partner. Regarding B1, the “stoichiometry N” value in data set [1] came to 2.

B2: H. pylori DnaB helicase, full length (enzyme)
chain: MDHLKHLQQLQNIERIVLSGIVLANHKIEEVHSVLEPSDFYYPPNGLFFEIALKLHEEDCPIDENFIRQKMPKDKQIKEEDLVAIFAASPIDNIEAYVEEIKNASIKRKLFGLANTIREQALESAQKSSDILGAVEREVYALLNGSTIEGFRNIKEVLESAMDLITENQRKGSLEVTGIPTGFVQLDNYTSGFNKGSLVIIGARPSMGKTSLMMNMVLSALNDDRGVAVFSLEMSAEQLALRALSDLTSINMHDLESGRLDDDQWENLAKCFDHLSQKKLFFYDKSYVRIEQIRLQLRKLKSQHKELGIAFIDYLQLMSGSKATKERHEQIAEISRELKTLARELEIPIIALVQLNRSLENRDDKRPILSDIKDSGGIEQDADIVLFLYRGYIYQMRAEDNKIDKLKKEGKIEEAQELYLKVNEERRIHKQNGSIEEAEIIVAKNRNGATGTVYTRFNAPFTRYEDMPIDSHLEEGQETKVDYDIVTT
As usually defined, the Kd is the concentration at which binding is half-saturated. High values mean lower affinity, low ones higher affinity. As to B2, the Kd in data set [2] was found to be 2.25 µM.

B3: N-terminal domain with longer linker (NTDL) of H. pylori DnaB helicase (residues 1-144) (domain or fragment)
chain: MDHLKHLQQLQNIERIVLSGIVLANHKIEEVHSVLEPSDFYYPPNGLFFEIALKLHEEDCPIDENFIRQKMPKDKQIKEEDLVAIFAASPIDNIEAYVEEIKNASIKRKLFGLANTIREQALESAQKSSDILGAVEREVYALLN
Consider B3, for which the dissociation constant Kd in data set [2] came to 0.11 µM.
